Results reported in US10900053, “Genome-modified recombinant adeno-associated virus vectors” (University of Florida Research Foundation, Incorporated).

Experiments:
Details in all cases: tags: Sigma; label: 32P
[1] = target: T1, Glucocorticoid receptor (GR) (UniProt P04150 P04150:1-777); experiment: EMSA; 20 min 25 C, 6% gel 0.5xTBE; competed by 10-fold excess unlabeled GRE and 2- to 50-fold unlabeled D-sequence, not by NS (FIG. 3B)
Description: (§1) In contrast, both D-sequences in the scAAV2 genomes are present in double-stranded forms. Since GR activation had no effect on the transduction efficiency for ssAAV2 vectors, it was hypothesized that the D-sequence might contain a putative GRE site. Indeed, there exists a sequence, GGTTCCT, at the end of the D-sequence, which shares partial homology to the consensus GRE site, 5'-GGTA-CANNNTGT(T/C)CT-3' (SEQ ID NO: 1) (34). The TGTTCT half-site is an essential core element which has been reported to be sufficient to relay glucocorticoid signaling (34). To experimentally test the possibility whether purified GR protein could bind to the D-sequence, electrophoretic mobility-shift assays (EMSAs) were carried out using double-stranded D-sequence oligonucleotides (D: 5'-[…]-3') (SEQ ID NO: 6). One of the conventional double-stranded GRE sequences (GRE: 5'-[…]-3') (SEQ ID NO: 13), and a non-specific (NS) sequence (NS: 5'-[…]-3') (SEQ ID NO: 10) were used as appropriate positive and negative controls, respectively. Each of the ^32P-labeled oligonucleotide probes was individually incubated with purified GR proteins for 20 minutes at 25° C. and then subjected to EMSAs. […]

[2] = target: T1, Glucocorticoid receptor (GR); experiment: EMSA; 20 min 25 C; GR binding to GRE only slightly more efficient than to D by densitometry; unlabeled D competes GRE probe at 2- to 50-fold excess
[3] = target: T1, Glucocorticoid receptor (GR); experiment: EMSA; 20 min 25 C; unlabeled NS does not compete GRE probe (FIG. 3B lane 6)
Description: as §1

T1 sequence (P04150 whole entry, one chain of several): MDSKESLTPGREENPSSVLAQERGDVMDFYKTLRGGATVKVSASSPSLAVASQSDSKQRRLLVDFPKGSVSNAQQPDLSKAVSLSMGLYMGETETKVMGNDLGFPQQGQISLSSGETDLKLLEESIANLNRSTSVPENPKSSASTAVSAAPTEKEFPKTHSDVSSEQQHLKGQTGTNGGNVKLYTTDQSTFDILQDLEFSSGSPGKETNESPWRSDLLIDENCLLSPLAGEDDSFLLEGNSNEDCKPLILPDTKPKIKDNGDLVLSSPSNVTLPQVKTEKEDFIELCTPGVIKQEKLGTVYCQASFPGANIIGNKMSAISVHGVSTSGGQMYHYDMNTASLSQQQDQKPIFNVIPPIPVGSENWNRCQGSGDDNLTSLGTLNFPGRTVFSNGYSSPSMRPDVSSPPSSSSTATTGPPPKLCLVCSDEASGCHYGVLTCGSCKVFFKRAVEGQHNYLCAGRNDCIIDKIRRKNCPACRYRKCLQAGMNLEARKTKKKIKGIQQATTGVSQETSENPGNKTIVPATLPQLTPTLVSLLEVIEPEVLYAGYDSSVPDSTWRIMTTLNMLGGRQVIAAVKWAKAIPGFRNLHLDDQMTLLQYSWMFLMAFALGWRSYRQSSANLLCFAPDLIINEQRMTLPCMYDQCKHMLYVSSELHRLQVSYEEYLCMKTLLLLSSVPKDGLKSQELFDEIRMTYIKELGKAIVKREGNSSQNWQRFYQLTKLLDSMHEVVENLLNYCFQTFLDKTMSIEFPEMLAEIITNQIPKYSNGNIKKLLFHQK

B1: GRE (dsDNA)
DNA 1: CTAGGCTGTACAGGATGTTCTGCCTAG
DNA 2: CTAGGCAGAACATCCTGTACAGCCTAG
B1: binds [1].

B2: AAV2 D-sequence (D) (dsDNA)
DNA 1: CTCCATCACTAGGGGTTCCT
DNA 2: AGGAACCCCTAGTGATGGAG
B2: binds [2].

B3: Non-specific (NS) (dsDNA)
DNA 1: TATTAGATCTGATGGCCGCT
DNA 2: AGCGGCCATCAGATCTAATA
B3: no binding [3].
